Results published in PMC9293652 (The Journal of Biological Chemistry, 2022).
Read-outs that look alike come from different tables or passages of the source.

B1: ErbB4 double-motif peptide PY1PY2 (1027-1060, natural linker) (peptide)
peptide: AFNIPPPIYTSRARIDSNRSEIGHSPPPAYTPMS
B2: ErbB4 double-motif peptide PY1PY3 (polyglycine linker) (peptide)
peptide: AFNIPPPIYTSRAGGGGGTVLPPPPYRHRN
B3: ErbB4 double-motif peptide PY1PY2S (natural linker replaced by polyglycine) (peptide)
peptide: AFNIPPPIYTSRAGGGGGHSPPPAYTPMS
B4: ErbB4 peptide PY3 (1293-1305) (peptide)
peptide: GTVLPPPPYRHRN
B5: ErbB4 double-motif peptide PY3PY3 (polyglycine linker) (peptide)
peptide: GTVLPPPPYRHRNGGGGGTVLPPPPYRHRN

Columns and labels:
[1] = target: WWOX WW1-WW2 tandem domain (amino acids 16-91) (human); experiment: ITC
[2] = target: WWOX WW1-WW2 tandem domain (amino acids 16-91) (human); experiment: NMR titration
[3] = target: T1, WWOX WW1-WW2 tandem domain (amino acids 16-91) (human); experiment: ITC
T1 chain: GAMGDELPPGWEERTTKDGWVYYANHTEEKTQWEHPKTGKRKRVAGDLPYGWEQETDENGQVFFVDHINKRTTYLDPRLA

[4] = target: T1, WWOX WW1-WW2 tandem domain (amino acids …); experiment: NMR titration
[5] = target: T1, WWOX WW1-WW2 tandem domain (amino acids …); experiment: NMR titration
[6] = target: T2, WWOX WW1 (amino acids 16-50) (human); experiment: ITC
T2 chain: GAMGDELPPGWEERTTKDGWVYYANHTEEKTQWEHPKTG

[7] = target: T3, WWOX WW2 (amino acids 57-91) (human); experiment: ITC
T3 chain: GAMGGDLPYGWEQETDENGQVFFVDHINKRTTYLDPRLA

Molecule | Kd [1] [µM] | KD WW1 (based on W44) [2] [µM] | Kd [3] [µM] | dH [3] [kcal/mol] | KD WW2 (based on V73) [4] [µM] | KD WW1 (based on W44) [5] [µM] | also measured
ErbB4 peptide PY2 (1048-1060) | > 100 | 15 | – | – | – | – | –
ErbB4 peptide PY1 (1027-1039) | > 100 | 21 | – | – | – | – | –
ErbB4 peptide PY3 (1293-1305) | 30 | 10 | – | – | – | – | dH [1]: -12.1 kcal/mol; KD WW2 (based on V73) [2]: > 1000 µM
B1 | – | – | 14 | -39 | ~1000 | 10 ± 2 | –
B2 | – | – | 8 | -22 | 80 ± 20 | 6 ± 1 | –
B3 | – | – | 21 | -29 | 70 ± 20 | 2 ± 1 | –
B4 | – | – | – | – | – | – | Kd [6]: 78 µM; dH [6]: -23 kcal/mol; Kd [7]: > 200 µM
B5 | – | – | 3.1 | -24.9 | 40 ± 20 | 0.6 ± 0.3 | Kd [6]: 50 µM; dH [6]: -39 kcal/mol
